Assay results as given in patent publication US20230381333A1 (HANMI PHARM, published 2023).
Bridge positions count the residues as written; N and C are the ends. Square brackets hold non-standard residues; d marks the D form. Ends that are not written are not given here. * marks the point of attachment. Acetyl(2-(4-imidazolyl)) = O=C(Cc1c[nH]cn1)*; Aib = CC(C)(N)C(=O)O

T1: human GIP receptor (human, UniProt P48546 22-466)
T1 sequence (looked up): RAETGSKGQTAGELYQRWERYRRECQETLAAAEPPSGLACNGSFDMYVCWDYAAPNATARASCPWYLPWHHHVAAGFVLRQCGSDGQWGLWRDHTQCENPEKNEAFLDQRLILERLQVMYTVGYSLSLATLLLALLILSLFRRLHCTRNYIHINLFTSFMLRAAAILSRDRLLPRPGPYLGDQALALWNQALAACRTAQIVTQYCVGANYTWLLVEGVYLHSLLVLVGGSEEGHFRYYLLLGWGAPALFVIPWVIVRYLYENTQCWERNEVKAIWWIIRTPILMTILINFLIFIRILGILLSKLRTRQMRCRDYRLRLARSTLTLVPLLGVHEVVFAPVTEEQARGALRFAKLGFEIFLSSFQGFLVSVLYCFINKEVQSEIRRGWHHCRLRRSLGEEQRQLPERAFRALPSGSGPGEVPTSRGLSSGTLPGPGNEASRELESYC


biological target: T1, human GIP receptor; assay: cell-based or functional assay

Binder | In vitro activity compared to native-type peptide (%), vs GIP
{Acetyl(2-(4-imidazolyl))}-[Aib]QGTFTSDYSIAMDEKHCKDFVNWLLNTK (bridge 15-19) [triple agonist of SEQ ID NO: 60] | 8.2%
{Acetyl(2-(4-imidazolyl))}-[Aib]QGTFTSDYSIAMDEIACKDFVNWLLNTK (bridge 15-19) [triple agonist of SEQ ID NO: 61] | 2.8%
{Acetyl(2-(4-imidazolyl))}-[Aib]QGTFTSDKSKYLDERAAQDFVQWLLDGGPSSGAPPPS [triple agonist of SEQ ID NO: 62] | < 0.1%
{Acetyl(2-(4-imidazolyl))}-[Aib]QGTFTSDCSKYLDERAAQDFVQWLLDGGPSSGAPPPS [triple agonist of SEQ ID NO: 63] | < 0.1%
Y[Aib]QGTFTSDYSKYLDECAAKEFVQWLLDHHPSSGQPPPS (bridge 16-20) [triple agonist of SEQ ID NO: 64] | 92.9%
H[Aib]QGTFTSDVSKYLDGQAAKEFVAWLLKGC [triple agonist of SEQ ID NO: 7] | < 0.1%
H[Aib]QGTFTSDYSKCLDEKRAKEFVQWLLDHHPSSGQPPPS (bridge 16-20) [triple agonist of SEQ ID NO: 65] | 11.6%
Y[Aib]QGTFTSDYSKYLDECRAKDFVQWLLDHHPSSGQPPPS (bridge 16-20) [triple agonist of SEQ ID NO: 66] | 17.2%
Y[Aib]QGTFTSDYSKYLDECAAKDFVQWLLDHHPSSGQPPPS (also: ring formation (underlined residues), positions not given here) [triple agonist of SEQ ID NO: 67] | 39.8%
Y[Aib]QGTFTSDYSKCLDEKAAKEFVQWLLDHHPSSGQPPPS (bridge 16-20) [triple agonist of SEQ ID NO: 68] | 107%
Y[Aib]QGTFTSDYSKCLDERAAKEFVQWLLDHHPSSGQPPPS (bridge 16-20) [triple agonist of SEQ ID NO: 69] | 62.8%
Y[Aib]QGTFTSDYSKCLDEKRAKDFVQWLLDHHPSSGQPPPS (bridge 16-20) [triple agonist of SEQ ID NO: 70] | 64.4%
Y[Aib]QGTFTSDYSKYLDERACKDFVQWLLDHHPSSGQPPPS (bridge 16-20) [triple agonist of SEQ ID NO: 71] | 94.7%
Y[Aib]QGTFTSDCSKYLDERAAKDFVQWLLDHHPSSGQPPPS (bridge 16-20) [triple agonist of SEQ ID NO: 72] | 1.6%

biological target: human GLP-1 receptor (human, UniProt P43220 24-463); assay: cell-based or functional assay

Binder | In vitro activity compared to native-type peptide (%), vs GLP-1
{Acetyl(2-(4-imidazolyl))}-[Aib]QGTFTSDYSIAMDEKHCKDFVNWLLNTK (bridge 15-19) [triple agonist of SEQ ID NO: 60] | 106%
{Acetyl(2-(4-imidazolyl))}-[Aib]QGTFTSDYSIAMDEIACKDFVNWLLNTK (bridge 15-19) [triple agonist of SEQ ID NO: 61] | 59.8%
{Acetyl(2-(4-imidazolyl))}-[Aib]QGTFTSDKSKYLDERAAQDFVQWLLDGGPSSGAPPPS [triple agonist of SEQ ID NO: 62] | 5.2%
{Acetyl(2-(4-imidazolyl))}-[Aib]QGTFTSDCSKYLDERAAQDFVQWLLDGGPSSGAPPPS [triple agonist of SEQ ID NO: 63] | 15.3%
Y[Aib]QGTFTSDYSKYLDECAAKEFVQWLLDHHPSSGQPPPS (bridge 16-20) [triple agonist of SEQ ID NO: 64] | 64.6%
H[Aib]QGTFTSDVSKYLDGQAAKEFVAWLLKGC [triple agonist of SEQ ID NO: 7] | 13.7%
H[Aib]QGTFTSDYSKCLDEKRAKEFVQWLLDHHPSSGQPPPS (bridge 16-20) [triple agonist of SEQ ID NO: 65] | 95.4%
Y[Aib]QGTFTSDYSKYLDECRAKDFVQWLLDHHPSSGQPPPS (bridge 16-20) [triple agonist of SEQ ID NO: 66] | 15.8%
Y[Aib]QGTFTSDYSKYLDECAAKDFVQWLLDHHPSSGQPPPS (also: ring formation (underlined residues), positions not given here) [triple agonist of SEQ ID NO: 67] | 28.5%
Y[Aib]QGTFTSDYSKCLDEKAAKEFVQWLLDHHPSSGQPPPS (bridge 16-20) [triple agonist of SEQ ID NO: 68] | 27.9%
Y[Aib]QGTFTSDYSKCLDERAAKEFVQWLLDHHPSSGQPPPS (bridge 16-20) [triple agonist of SEQ ID NO: 69] | 24.3%
Y[Aib]QGTFTSDYSKCLDEKRAKDFVQWLLDHHPSSGQPPPS (bridge 16-20) [triple agonist of SEQ ID NO: 70] | 15.1%
Y[Aib]QGTFTSDYSKYLDERACKDFVQWLLDHHPSSGQPPPS (bridge 16-20) [triple agonist of SEQ ID NO: 71] | 90.1%
Y[Aib]QGTFTSDCSKYLDERAAKDFVQWLLDHHPSSGQPPPS (bridge 16-20) [triple agonist of SEQ ID NO: 72] | 11.5%

biological target: human GCG receptor (human, UniProt P47871 26-477); assay: cell-based or functional assay
Sequence (P47871 26-477): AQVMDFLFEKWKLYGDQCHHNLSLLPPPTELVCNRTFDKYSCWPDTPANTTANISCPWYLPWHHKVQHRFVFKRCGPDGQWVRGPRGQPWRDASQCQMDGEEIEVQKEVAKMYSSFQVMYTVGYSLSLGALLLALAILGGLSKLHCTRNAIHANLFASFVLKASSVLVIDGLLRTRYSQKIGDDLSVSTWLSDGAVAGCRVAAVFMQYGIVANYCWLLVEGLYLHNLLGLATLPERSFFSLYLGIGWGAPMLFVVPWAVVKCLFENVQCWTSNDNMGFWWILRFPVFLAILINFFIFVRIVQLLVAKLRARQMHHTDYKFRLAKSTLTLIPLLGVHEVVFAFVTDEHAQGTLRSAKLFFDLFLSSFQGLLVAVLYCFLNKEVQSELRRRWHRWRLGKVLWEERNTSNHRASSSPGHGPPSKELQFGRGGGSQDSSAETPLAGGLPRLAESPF

Binder | In vitro activity compared to native-type peptide (%), vs Glucagon
{Acetyl(2-(4-imidazolyl))}-[Aib]QGTFTSDYSIAMDEKHCKDFVNWLLNTK (bridge 15-19) [triple agonist of SEQ ID NO: 60] | < 0.1%
{Acetyl(2-(4-imidazolyl))}-[Aib]QGTFTSDYSIAMDEIACKDFVNWLLNTK (bridge 15-19) [triple agonist of SEQ ID NO: 61] | < 0.1%
{Acetyl(2-(4-imidazolyl))}-[Aib]QGTFTSDKSKYLDERAAQDFVQWLLDGGPSSGAPPPS [triple agonist of SEQ ID NO: 62] | < 0.1%
{Acetyl(2-(4-imidazolyl))}-[Aib]QGTFTSDCSKYLDERAAQDFVQWLLDGGPSSGAPPPS [triple agonist of SEQ ID NO: 63] | < 0.1%
Y[Aib]QGTFTSDYSKYLDECAAKEFVQWLLDHHPSSGQPPPS (bridge 16-20) [triple agonist of SEQ ID NO: 64] | 60.1%
H[Aib]QGTFTSDVSKYLDGQAAKEFVAWLLKGC [triple agonist of SEQ ID NO: 7] | < 0.1%
H[Aib]QGTFTSDYSKCLDEKRAKEFVQWLLDHHPSSGQPPPS (bridge 16-20) [triple agonist of SEQ ID NO: 65] | 25.2%
Y[Aib]QGTFTSDYSKYLDECRAKDFVQWLLDHHPSSGQPPPS (bridge 16-20) [triple agonist of SEQ ID NO: 66] | 172%
Y[Aib]QGTFTSDYSKYLDECAAKDFVQWLLDHHPSSGQPPPS (also: ring formation (underlined residues), positions not given here) [triple agonist of SEQ ID NO: 67] | 46.2%
Y[Aib]QGTFTSDYSKCLDEKAAKEFVQWLLDHHPSSGQPPPS (bridge 16-20) [triple agonist of SEQ ID NO: 68] | 8.8%
Y[Aib]QGTFTSDYSKCLDERAAKEFVQWLLDHHPSSGQPPPS (bridge 16-20) [triple agonist of SEQ ID NO: 69] | 9.6%
Y[Aib]QGTFTSDYSKCLDEKRAKDFVQWLLDHHPSSGQPPPS (bridge 16-20) [triple agonist of SEQ ID NO: 70] | 71.3%
Y[Aib]QGTFTSDYSKYLDERACKDFVQWLLDHHPSSGQPPPS (bridge 16-20) [triple agonist of SEQ ID NO: 71] | 12.7%
Y[Aib]QGTFTSDCSKYLDERAAKDFVQWLLDHHPSSGQPPPS (bridge 16-20) [triple agonist of SEQ ID NO: 72] | 1%
